The DeepSol protein solubility set

Experiment: soluble on expression in E. coli; label from the status in PepcDB or PDB records

Row | Sequence | soluble on expression in E. coli
1 | MLTESTDKKAVNQVIHYVYEGGGEAATDHNATVDFSRTITTDRVTNDKTYGDWTADNGDSFASVTSPVIDGYTADQLKVSEMTGITADTEDISVTVTYTRNQGTIDITYIDQTTGQTLSKLEHHHHHH | not soluble
2 | MLTGRESLLRLIGKRRRFLPNRHLLLSAHTPNSLNLEFNDYGNLVSLAGDDCRLSEDPTSSDDPSKFSDDLSLSTRKKRRLTQTTLLQSSFLSVPKQLEDGLVICTQQKSILDSETFEFSLVQRSEPSESICCKVEDGSCSPSREESLKTVTLDEDNGEAIETFIVGRKFSDVQDLEIGGDIFLLRHPENVKDRNAIKVISGDSEMLGYLPKDISQCLSPLIDDYDLKFEGTITSVPKKSSEAVLIKVVCHKMRSDGWKECELYGDFKPLWEKVLQVVEHQMQFPPKTTRYQLNFNVLLQEVLRSCSHLFTADEKAFLESFPTLSEDSQRLFIRLYTRKGPWFRLSNISYPEVTDSLQALKDLTVRGFMSSVKDANELDNQKMKEITELLNVTELRDILSMNKVFSRTSRKRDLINSLCSCYNDGTRINLATVILERTGLCAKVSSTAESLIWRVERLFFLNGEQDLSSFVLLDLGIIKYPTYKCIDSEQIFSNRTKLLAYEEAIEVAQLMDESLDNEDPQTVLKCIIIAETRISSSSLDSAHAAAFNRFTAPWVNSKVVLLGVSFFENQKRYNRAVYLLRRLLSCFNCDGRRGYWTVRLSTDLEHMGRPNESLTVAEQGLLDPWVRAGSRVALQRRILRLAKPPRRWKTPTFSNLVDNKIPEVTIQGRSLNCEVGIKNRFYGEDGEQCGVEQLALQYYSGEGGGWQGIHTESSIWLTIFGLLMWDILFSDVPGVFQTRFQVNETQ | not soluble
3 | MLTLLNRWRSQPGGASNAAAFIRVLESPKSAVTDKVLVLKAFNDWDVLVNTWFEVADALPAVEQLLDNNTFPEHSSAALLVSKVYFCLEQYERALEFALRGDFNVVPATRTGLGNDAEYVNKIIETAIDTYKTLSKQGSGIPQKLRDLIDRIVARNLDKREIWFVISLGFETTNLAMIDRAISAMPADLTIKNQTTLVETLNRVVNGAFDRSFRFQVIDTVIKTYLKCPSPDMSKICECYVLTDNAEAAADTITSLIAKSLSTRAYQIAFDLYETASQGFLDRVLKRFQQQDARDEKSMEKIHSILKGHETVKAYLDFFVRHNHTDSVLMEEIKENIRTASAHNALLISNGLMQYGTTCDDFLRNNLNWVSKATNWNKFNAVASLGLIHHGQESSAMKVLEPYLPKESVEGFGFKEGGAMLAYGLIHAKHGDATAMSTLAQWLKTAENEPVRHGACLGFGVAGLGSSSVSNYEKVREVLQRDEAVSGESAGIAMGLIMAGHLNQEVFNELKQYTVDTQHDKTQRGIRTGLACAAFGLQGDAEPYIKEAIGAKSNPMLRSTGICMLSMAYAGTGSPDVVRRLLEKVATDPNLDVKRYATIGIGFVLSKDPSTCLSYVAMLTEHFNGHVRYGAAMALGIACAGTGNMEAIALIEPMISDKEGFVRKGALLSLALIMCQQTDYTCPKVNGFRKQLLKKIGEKNEDSLVKFGAIIAQGLLDIGGQNAAVTMQNSDKQPDMGSMVGMMCFLHGWFWHSMHFFIALAAKPSCLVMMNENLKIPVLDYICHANSQKFAYPPRAESKKDKDVKKIETVVLSITGKKNASKKLIAEEKKRREAAASASSAAAAPSSSSTSGTAPAAEDEKMEVDQPGKSKKEKAPEKDTKPLHRLQNPARVIPAQRQLISISDARAYSPMKPLYKGGIIVADRVDKEREEKLVSEVVTQVNTPASSGNTENKPHSTFEININDF | not soluble
4 | MLTPRDENNEGDAMPMLKKPRYSSLSGQSTNITYQEHTISREERAAAVGRHEGFRGCTIWFTGLSGAGKTTISFALERTLNKLGIPCYGLDGDNIRHGLCKNLGFSKEDRQENIRRVAEVAKLFADSGMICLAAFISPFQEDRLDARKIHESENVKFIEVHVSTTLEVCEQRDPKQLYKKARAGQILGFTGIDSAYEPPENAEIILDAGKDGVQQCVQKVLDHLESKGLLPEQIPDVPAVRELFVSDDLTVAELLKESQNLPTVELTKVDLQWLQVLAEGWATPLSGFMRERQYLQSMHFGQLLDLKHKVAFVGEKSDDKEDSWPMMDDINQSIPIVLPISDDVKKGLEGVTRIALKYNGQVYAILSDPEIFEHRKDERVCRQFGTNDPRHPAVAQVLESGNWLLGGDVAVVQKIQFNDGLDKYRKTPNELRAIFAEKNADAVFAFQLRNPIHNGHALLMRDTREKLLAEHKNPILLLHPLGGWTKDDDVPLDIRIKQHEAVIAERVLDPEWTVLSIFPSPMMYAGPTEVQWHARSRIAAGIQHYIVGRDPAGIQKPGSPDALYETTHGAKVLSMAPGLSALHILPFRVAAYDKTAKKMSFFDTSRKEDFENISGTKMRGLARNGDTPPEGFMAPTAWEVLAGYYKSLQNSN | not soluble
5 | MLTQEHINIIKSTIPLLESAGPALTQHFYQRMFSHNPELKHIFNMTHQKTGRQSVALFEAIAAYAKHIDNLAALTSAVERIAHKHTSFNIQPEHYQIVGHHLLETLRELAPDAFTQPVEEAWTAAYFFLAQVFIDREGALYLERKQALGGWRDGRTFVVREKQVESAYVTSFVLVPADGGAVLDYQPGQYIGIEVTPEGSDYREIRQYSLSHASNGREYRISVKREGVGSDNPGLVSHYLHNNVKVGDSVKLYAPAGDFFYVERERPVVLISAGVGATPMQAILHTLAKQNKSGVTYLYACNSAKEHTFAQETAQLIAQQGWMQQVWYRDESADDVLQGEMQLAELILPIEDGDFYLCGPIGFMQYVVKQLLALGVDKARIHYEVFGPHAQLAA | not soluble
6 | MLTVIAEIRTRPGQHHRQAVLDQFAKIVPTVLKEEGCHGYAPMVDCAAGVSFQSMAPDSIVMIEQWESIAHLEAHLQTPHMKAYSEAVKGDVLEMNIRILQPGI | soluble
7 | MLTWSTSATSSKPTLRGKIPNSKAAEEFLDSWDNAVFDGKSTGDPELDREASLWRDKFPHLRITGSRFESQKVTHPIPVDSLSFQKSIIQHSKSANAIREKLPKIDNFKKK | not soluble
8 | MLVAGAGALCLTLSGCAGAGSLGASDQTITIAMVSNSQMQDAQKLASQFEEENPDIDLKFVTLSENQARAKITASTATGGGEFDVVMISNYETPQWAKYGWLKNLSEYAEATEGYDEADFIPTLRESLSYEGNMYSVPFYGESSFLMYRKDLFEQAGITLSEKPTWTEVATAAKQLDSEDMAGICLRGKPGWGELLAPLDTVINTFGGRWFDEDWNAQLTSPEVERAVQFYVDLVREYGEPGAATSGFGECATQLAQGQVAMWYDSTSAVSTLEDPASSAVVGKIGYAPAPIEVKDNSGWLYSWSLGIPESSENPDAAWKFISWMTDKQYIRTVGEDLGWERVPPGSRLSTYEIPEYKEASAAYGPLTLEAIEDATPNAPTVQPVPYTGVQFLAIPEFQDLGTRVSQQISAAIAGQQTVPEALAQAQQYAEVVGATYREDR | not soluble
9 | MLVEDSGHHLPESADIENALDLLLKAQLERAFGPELAEHFWAARQPRTLDERLAFIRKCWIGVFKDSPLSTFGLERLEQLERLCRSKRRGRELSAAEHHQFAEELARLWEQVQRLLPRAAPETSYASSASAGGVHSGDAHTPATLSDAESAHAAPEAMRIEAPATSARSASGCMARVSSDVAAAATNVSLVVLDGENIAWAHGQNAVFSPKGIAIAVDFFRKRGYRCVVFLPDYRRKRADLPTVSASDALVFVPAGEYDDTFALGYAVGHDAILVTNDLLQDHLDQFYPDEGEAREALRKWLGSHRCSFTFVGDEFLPNPHFFLP | not soluble
10 | MLVKGNEILLKAHKEGYGVGAFNFVNFEMLNAIFEAGNEENSPLFIQASEGAIKYMGIDMAVGMVKIMCERYPHIPVALHLDHGTTFESCEKAVKAGFTSVMIDASHHAFEENLELTSKVVKMAHNAGVSVEAELGRLMGIEDNISVDEKDAVLVNPKEAEQFVKESQVDYLAPAIGTSHGAFKFKGEPKLDFERLQEVKRLTNIPLVLHGASAIPDNVRKSYLDAGGDLKGSKGVPFEFLQESVKGGINKVNTDTDLRIAFIAEVRKVANEDKSQFDLRKFFSPAQLALKNVVKERMKLLGSANKI | soluble
11 | MLVLIRVFNTLGRRKEVFNPYSPPLVGMYVCGPTVYDYTHIGHARTFTVFDAIKRYLRLRGYDVFHVQNITDIDDKIINRAREEGRDWREIVREYSRDYLEGLGSLGIQIDHHPRVTDHISDIIRFIEGLIEKGYAYVAESGSVYFEVDKYPGYGMLSGHLSKEAWRQEEDVLHEKKSPYDFALWKAAKPGEPSWESPWGRGRPGWHIECSVMSSRYLGSRIDIHGGGVDLVFPHHENERAQSESYFGHRWVRYWLHASYLTIKGEKMSKSLGNIIPLREALREWGPGPLRLWLLSSHYRSNLDYSEEALGQYRRLYERLRQAADSIGRRLERAEPKGRLGEGELETVERLKGVVRRWHEAMSDDFNMGKAMSSLWEFTTIYFREVEQTESYTLLWLSWRILTGFNSVYAFAPDIVEARRPERSLEDSLVQALVDVRSELRRRKMYDLADEIRSRLAQLGFVLHDKGEKTEWRRR | soluble
12 | MLVLYRASIRFKLRKNKNSFDSSNYFYGGNNICIINTKWGKHSGIGGYAEIIDTLVGNFTNISSWAKIGIRDHIHTNFLICDFVYKDNDHIMPPGISSFEDYWVKIGNDVWVGTNVTILRGVEVGDGAVIAAGSVVTKSIPPYAIVGGNPAKFIKWRFPFEVREKLLEIKWWDWDDDLIKEKKDYLQNLVGFDMDKYKIEYRKRKEDLFYLEHHHHHH | soluble
13 | MLVNFIKNFIPHRFYSSKTEIPVVRLHGAIIDSSSSIARTLSLGRCANLLDKAFAYKKAPAVAVIINSPGGSPVQSRLIFKRIRDLAEEKKKQVLMFIEDIAASGGYMIACAGDEIFADPSSIVGSIGVVSASFGFPELLKKIGIERRVYTAGKNKVTLDPFQPEKKTDIEHLKSLQLEVHKTFIDLVKERRAEKLSNDPNIFTGMFWSGKKSVELGLIDGLNDVRSVIKERFGDDTKLRLIIPPKSLFGPKTPSGVTAHAVHTAIDSALMVAQERALWQYYGLLEHHHHHH | soluble
14 | MLVPLYDVMCRALGINGKTAGSAYSGEQQVDVGREVKVQFMTSNNIDMVWEFRSAGDQLVVHPGAVNQMVFYARNPSDKPMTAQAIPSIAPAEAAAYFHKTECFCFTQQVLQPGESIEMPVRFIVDRDLPKDVRHVTLAYTLFDI | soluble
15 | MLVRRLFQPSTLHWAWRTTALNHPLGRHQGGLRWTHSGGRSYRAVIFDTGGVLVPSPGTVAVGWEVQNHVPSGTIVKAFIRGGDSGPWIRFIKGEITTEHFLEEFGRLCSEIAKTSVPVSSYFSLLTSEQVTKQFPVMTQAISQIRAKGLQTAVLTNNFHLSSGESFLPLDRKQFDVVVESCLEGICKPDPRIFQLCLQRLSLQPSEAIFLDDLGSNLKVAASLGIHTIKVDRPETAVKELEALLGFPLHLGVPNTRPVRKTMAIPQDALEKYLKGLLGTHSTGPMELLQFDHGQSNPTYYIRLADRQLVLRKKPSGTLLPSAHAIEREFRIMKALANAGVPVPTVLDLCEDSSIIGTPFYLMEYCPGIIYKDPSLPGLEPSRREAIYTAMNQVLCRIHSVDLQATSLDSFGKQGDYIPRQVQTWTKQYRAAETSSIPAMERLIQWLPLHLPRQQRTTLVHGDFRLDNLIFHPEKAEVLAVLDWELSTLGDPFADVAYSCLAYYLPSSFPILRGFRDQDVTKLGIPTVEEYFRMYCLNMGIPPIDNWNFYMAFSFFRVAAILQGVYKRSLTGQASSATAQQSGKLTESMAELAWDFATKEGFRVFKEMPATKTLSRSYHAWAGPRSPRTPKGVRGHSTVAAASPSHEAKGGLVISPEGLSPAVRKLYEQLVQFIEQKVYPLEPELQRHQASADRWSPSPLIEDLKEKAKAEGLWNLFLPLETDPEKKYGAGLTNVEYAHLCEVMGMSLYASEIFNCSAPDTGNMEILVRYGTEEQKARWLVPLLEGRIRSCFAMTEPQVASSDASNIEASIKEEDGCYVINGHKWWTSGILDPRCKLCVFMGKTDPQAPRHQQQSMLLVPMDSPGITVIRPLSVFGLEDPPGGHGEVRFKDVRVPKENILLGPGRGFEIAQGRLGPGRIHHCMRLIGYSERALALMKTRVMSRTAFGKPLVEQGTILADIARSRVEIEQARLLVLKAAHLMDVAGNKTAALDIAMIKMVVPSMAYHVIDRAIQAFGAAGLSSDYPLAQFFGWARALRFADGPDEVHQLTVAKMELKNQSRMQEPAVPRV | soluble
